Results published in the supplement of paper PMC10065799, “High-throughput profiling of sequence recognition by tyrosine kinases and SH2 domains using bacterial peptide display” (eLife, 2023).

Key:
[1] = system: c-Abl (mouse); test: phosphorylation enrichment, bacterial display (enrichment ratio); higher = better substrate or ligand; peptides without Tyr show the background
[2] = system: AncSZ; test: as above
[3] = target: EPHB1 (UniProt P54762); test: as above
[4] = target: Fes (UniProt P07332); test: as above
Chain of Fes (P07332 whole entry, looked up): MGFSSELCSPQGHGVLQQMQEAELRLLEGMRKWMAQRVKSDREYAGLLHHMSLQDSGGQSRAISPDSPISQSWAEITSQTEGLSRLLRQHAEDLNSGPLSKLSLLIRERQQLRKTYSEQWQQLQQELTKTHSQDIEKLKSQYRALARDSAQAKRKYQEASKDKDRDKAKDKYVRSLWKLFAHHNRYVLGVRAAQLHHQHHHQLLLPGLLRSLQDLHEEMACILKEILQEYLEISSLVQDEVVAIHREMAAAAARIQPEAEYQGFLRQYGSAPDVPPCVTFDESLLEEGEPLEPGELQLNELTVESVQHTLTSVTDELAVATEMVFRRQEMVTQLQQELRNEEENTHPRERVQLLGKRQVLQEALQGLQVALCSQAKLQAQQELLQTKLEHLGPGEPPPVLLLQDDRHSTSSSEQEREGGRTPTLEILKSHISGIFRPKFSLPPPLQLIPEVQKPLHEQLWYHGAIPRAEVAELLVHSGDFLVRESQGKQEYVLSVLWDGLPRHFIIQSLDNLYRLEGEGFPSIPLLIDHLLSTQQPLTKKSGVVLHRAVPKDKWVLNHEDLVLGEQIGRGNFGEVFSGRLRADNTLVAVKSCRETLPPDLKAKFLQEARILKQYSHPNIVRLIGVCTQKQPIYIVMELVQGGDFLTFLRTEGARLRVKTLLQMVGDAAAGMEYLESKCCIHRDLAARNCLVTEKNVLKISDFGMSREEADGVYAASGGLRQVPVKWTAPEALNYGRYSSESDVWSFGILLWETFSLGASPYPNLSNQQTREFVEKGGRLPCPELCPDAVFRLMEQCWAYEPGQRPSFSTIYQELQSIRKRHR

[5] = target: EPHB2 (UniProt P29323); test: as above
Chain of EPHB2 (P29323 whole entry, looked up): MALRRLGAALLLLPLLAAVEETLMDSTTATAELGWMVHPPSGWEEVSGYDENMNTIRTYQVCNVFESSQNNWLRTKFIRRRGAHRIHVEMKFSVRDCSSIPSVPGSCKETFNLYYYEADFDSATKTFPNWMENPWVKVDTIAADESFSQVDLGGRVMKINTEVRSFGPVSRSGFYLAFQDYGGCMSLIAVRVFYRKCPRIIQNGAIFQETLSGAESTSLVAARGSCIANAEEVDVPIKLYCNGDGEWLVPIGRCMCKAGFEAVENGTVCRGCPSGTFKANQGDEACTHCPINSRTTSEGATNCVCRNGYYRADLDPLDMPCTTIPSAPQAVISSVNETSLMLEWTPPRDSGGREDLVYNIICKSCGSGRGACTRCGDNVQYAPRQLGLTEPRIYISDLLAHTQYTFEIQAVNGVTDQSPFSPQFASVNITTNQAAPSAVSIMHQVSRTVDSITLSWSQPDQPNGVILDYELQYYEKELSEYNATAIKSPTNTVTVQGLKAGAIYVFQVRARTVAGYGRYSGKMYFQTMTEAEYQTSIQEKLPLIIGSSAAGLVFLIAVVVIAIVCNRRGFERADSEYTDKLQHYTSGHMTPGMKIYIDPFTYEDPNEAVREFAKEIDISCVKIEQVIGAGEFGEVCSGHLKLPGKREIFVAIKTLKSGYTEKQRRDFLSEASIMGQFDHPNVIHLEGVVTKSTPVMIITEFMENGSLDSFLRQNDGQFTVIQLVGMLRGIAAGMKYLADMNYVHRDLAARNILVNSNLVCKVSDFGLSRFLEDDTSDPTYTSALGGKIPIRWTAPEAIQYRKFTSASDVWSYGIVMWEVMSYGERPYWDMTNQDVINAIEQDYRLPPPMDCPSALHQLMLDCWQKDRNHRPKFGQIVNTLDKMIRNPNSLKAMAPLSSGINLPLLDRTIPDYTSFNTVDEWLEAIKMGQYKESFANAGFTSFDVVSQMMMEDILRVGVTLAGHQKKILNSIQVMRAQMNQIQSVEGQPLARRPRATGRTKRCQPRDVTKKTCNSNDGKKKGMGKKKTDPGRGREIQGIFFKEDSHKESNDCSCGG

[6] = system: c-Src; test: as above
[7] = target: Fyn (UniProt P06241); test: as above
Chain of Fyn (P06241 whole entry, looked up): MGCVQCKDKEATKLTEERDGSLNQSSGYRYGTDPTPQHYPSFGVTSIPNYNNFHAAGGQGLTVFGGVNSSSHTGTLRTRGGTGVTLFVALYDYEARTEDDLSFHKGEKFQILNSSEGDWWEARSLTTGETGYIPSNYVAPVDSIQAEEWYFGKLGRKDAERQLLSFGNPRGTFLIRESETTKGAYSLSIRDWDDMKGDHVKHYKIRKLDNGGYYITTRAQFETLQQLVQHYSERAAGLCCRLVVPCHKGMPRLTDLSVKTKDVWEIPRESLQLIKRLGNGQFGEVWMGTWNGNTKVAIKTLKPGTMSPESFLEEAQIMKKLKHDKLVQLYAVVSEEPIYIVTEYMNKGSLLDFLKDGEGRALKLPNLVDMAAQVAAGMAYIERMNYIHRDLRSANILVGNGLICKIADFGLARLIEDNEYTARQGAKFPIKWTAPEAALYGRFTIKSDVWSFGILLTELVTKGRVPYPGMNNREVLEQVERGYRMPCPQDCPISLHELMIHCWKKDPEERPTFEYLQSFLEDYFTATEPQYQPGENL

[8] = target: Hck (UniProt P08631); test: as above
Chain of Hck (P08631 whole entry, looked up): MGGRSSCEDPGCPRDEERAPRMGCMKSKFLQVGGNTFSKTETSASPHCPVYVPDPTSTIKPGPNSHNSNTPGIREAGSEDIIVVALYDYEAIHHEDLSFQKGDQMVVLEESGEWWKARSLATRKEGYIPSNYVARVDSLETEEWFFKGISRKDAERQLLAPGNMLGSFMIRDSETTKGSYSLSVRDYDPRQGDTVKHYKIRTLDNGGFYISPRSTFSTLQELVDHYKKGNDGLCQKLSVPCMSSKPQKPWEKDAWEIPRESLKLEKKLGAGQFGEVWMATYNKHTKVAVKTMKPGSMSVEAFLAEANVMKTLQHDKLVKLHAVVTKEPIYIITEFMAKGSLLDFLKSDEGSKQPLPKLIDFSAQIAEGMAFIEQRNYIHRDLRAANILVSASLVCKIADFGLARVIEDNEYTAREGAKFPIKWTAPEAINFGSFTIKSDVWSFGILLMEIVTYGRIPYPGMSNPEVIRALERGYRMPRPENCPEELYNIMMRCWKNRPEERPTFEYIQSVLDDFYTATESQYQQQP

[9] = target: Jak2 (UniProt O60674); test: as above
[10] = target: MERTK (UniProt Q12866); test: as above
[11] = system: Fer (mouse); test: as above
[12] = target: FGFR3 (UniProt P22607); test: as above
Chain of FGFR3 (P22607 whole entry, looked up): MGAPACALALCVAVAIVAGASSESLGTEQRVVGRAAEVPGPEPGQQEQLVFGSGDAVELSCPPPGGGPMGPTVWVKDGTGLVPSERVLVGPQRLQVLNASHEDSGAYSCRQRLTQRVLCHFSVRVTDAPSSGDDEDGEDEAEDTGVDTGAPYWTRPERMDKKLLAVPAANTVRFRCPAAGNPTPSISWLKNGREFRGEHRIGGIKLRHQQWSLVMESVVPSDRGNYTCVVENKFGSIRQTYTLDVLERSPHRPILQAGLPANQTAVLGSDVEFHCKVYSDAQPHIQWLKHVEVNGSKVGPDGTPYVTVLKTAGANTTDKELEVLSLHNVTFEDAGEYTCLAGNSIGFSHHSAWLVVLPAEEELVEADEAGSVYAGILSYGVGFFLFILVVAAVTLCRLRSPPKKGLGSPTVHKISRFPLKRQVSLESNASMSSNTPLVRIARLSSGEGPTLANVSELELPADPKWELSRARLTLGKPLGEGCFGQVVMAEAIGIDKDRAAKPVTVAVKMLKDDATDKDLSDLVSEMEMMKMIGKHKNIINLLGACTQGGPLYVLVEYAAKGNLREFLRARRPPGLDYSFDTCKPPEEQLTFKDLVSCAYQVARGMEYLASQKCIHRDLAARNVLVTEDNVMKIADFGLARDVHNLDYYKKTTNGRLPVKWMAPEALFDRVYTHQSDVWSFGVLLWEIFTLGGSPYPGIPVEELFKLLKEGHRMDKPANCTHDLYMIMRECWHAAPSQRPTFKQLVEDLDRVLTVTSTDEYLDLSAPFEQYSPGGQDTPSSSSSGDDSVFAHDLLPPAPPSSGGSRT

[13] = target: FGFR1 (UniProt P11362); test: as above
Chain of FGFR1 (P11362 whole entry, looked up): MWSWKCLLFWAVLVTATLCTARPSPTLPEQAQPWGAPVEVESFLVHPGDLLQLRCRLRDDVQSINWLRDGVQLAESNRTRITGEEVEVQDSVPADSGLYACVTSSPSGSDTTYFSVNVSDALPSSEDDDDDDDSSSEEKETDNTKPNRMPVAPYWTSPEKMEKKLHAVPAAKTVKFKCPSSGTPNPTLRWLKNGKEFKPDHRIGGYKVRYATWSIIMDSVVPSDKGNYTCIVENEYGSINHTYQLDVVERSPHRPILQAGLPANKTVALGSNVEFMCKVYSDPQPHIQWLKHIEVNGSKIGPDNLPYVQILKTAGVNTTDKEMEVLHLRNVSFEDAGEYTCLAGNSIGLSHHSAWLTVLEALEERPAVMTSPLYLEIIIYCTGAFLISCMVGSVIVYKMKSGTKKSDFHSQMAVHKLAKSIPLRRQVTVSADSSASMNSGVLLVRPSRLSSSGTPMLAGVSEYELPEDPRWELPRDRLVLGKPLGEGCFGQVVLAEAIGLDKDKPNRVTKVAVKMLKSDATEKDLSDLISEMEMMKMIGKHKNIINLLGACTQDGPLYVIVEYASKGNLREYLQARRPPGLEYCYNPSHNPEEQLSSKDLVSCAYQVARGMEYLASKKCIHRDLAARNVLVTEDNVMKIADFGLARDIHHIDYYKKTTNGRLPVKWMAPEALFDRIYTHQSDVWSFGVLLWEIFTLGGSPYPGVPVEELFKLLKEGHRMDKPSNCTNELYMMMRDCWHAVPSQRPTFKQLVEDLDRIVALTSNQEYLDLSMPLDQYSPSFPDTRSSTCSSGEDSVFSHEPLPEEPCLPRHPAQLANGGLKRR

[14] = target: c-Src SH2; test: SH2 binding enrichment of the phosphorylated peptide, bacterial display (enrichment ratio); higher = better substrate or ligand; peptides without Tyr show the background
[15] = target: SHP2-C SH2; test: as above
[16] = target: Grb2 SH2 (UniProt P62993); test: as above
Chain of Grb2 SH2 (P62993 whole entry, looked up, the tested form may be a part): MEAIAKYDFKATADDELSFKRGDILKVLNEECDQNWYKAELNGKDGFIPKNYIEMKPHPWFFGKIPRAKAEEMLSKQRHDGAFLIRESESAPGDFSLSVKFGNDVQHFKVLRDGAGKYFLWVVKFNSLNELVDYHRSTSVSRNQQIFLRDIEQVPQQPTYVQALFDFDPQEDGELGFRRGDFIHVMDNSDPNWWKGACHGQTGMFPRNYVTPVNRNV
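Wherever SH2 binding enrichment of the phosphorylated peptide, bacterial display is given: peptide library displayed on the E. coli surface as eCPX fusions, selected cells deep-sequenced, score is each peptide's frequency after selection divided by its frequency in the input.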
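Wherever phosphorylation enrichment, bacterial display is given: 11-residue human phosphosite peptides and single-mutation variants displayed on the E. coli surface, counted by deep sequencing, each peptide's frequency after selection divided by its frequency in the unselected input library; frequency after pTyr selection over input frequency; kinase dosed for 20-30% of maximal phosphorylation in three min.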

Sequence | phosphorylation enrichment [1] | phosphorylation enrichment [2] | phosphorylation enrichment [3] | phosphorylation enrichment [4] | phosphorylation enrichment [5] | phosphorylation enrichment [6] | phosphorylation enrichment [7] | phosphorylation enrichment [8] | phosphorylation enrichment [9] | phosphorylation enrichment [10] | phosphorylation enrichment [11] | phosphorylation enrichment [12] | phosphorylation enrichment [13] | SH2 binding enrichment [14] | SH2 binding enrichment [15] | SH2 binding enrichment [16]
SEEVNYATLTF [CLEC12B_Y7_T6N] | 1.38 | 1.1 | 1.98 | 1.37 | 1.46 | 1.41 | 1.33 | 1.66 | 1.12 | 0.905 | 1.45 | 1.4 | 1.25 | 0.391 | 3.03 | 0.762
IPVNGYQPVPA [ROR2_Y824_V819I] | 0.592 | 0.582 | 0.385 | 0.633 | 0.467 | 0.472 | 0.429 | 0.513 | 0.533 | 0.899 | 0.337 | 0.523 | 0.36 | 0.756 | 0.692 | 0.934
AFHGEYIPTVF [RAC2_Y32_P29H] | 0.575 | 0.859 | 0.554 | 0.809 | 0.447 | 0.419 | 0.445 | 0.412 | 0.571 | 0.432 | 0.391 | 0.635 | 0.602 | 0.682 | 0.59 | 0.91
FTRNFYVRAVL [CYBA_Y88_YF] | 1.57 | 1.36 | 0.831 | 1.58 | 0.713 | 0.554 | 0.529 | 0.565 | 1.54 | 0.503 | 0.689 | 1.11 | 0.635 | 0.448 | 0.658 | 0.581
ESLSSYRESAK [APOC2_Y47_W48R] | 0.495 | 0.63 | 0.252 | 0.529 | 0.317 | 0.303 | 0.342 | 0.305 | 0.487 | 0.391 | 0.314 | 0.456 | 0.382 | 0.556 | 0.795 | 0.858
YRGYSYDDIPD [TMEM230_Y112] | 0.762 | 0.973 | 0.483 | 0.964 | 0.485 | 0.463 | 0.442 | 0.51 | 0.973 | 0.393 | 0.439 | 0.662 | 0.531 | 13.6 | 0.893 | 1.15
PFRKLYESVKK [MKI67_Y241_W238R] | 1 | 0.931 | 0.516 | 0.695 | 0.368 | 0.491 | 0.454 | 0.563 | 1.16 | 0.612 | 0.458 | 0.685 | 2.28 | 0.714 | 0.711 | 0.973
EEKKKYYDTKI [CASP5_Y103] | 0.618 | 0.818 | 0.442 | 0.853 | 0.421 | 0.34 | 0.479 | 0.4 | 0.875 | 0.366 | 0.465 | 0.515 | 0.468 | 0.432 | 0.669 | 0.698
NFAKMYCNPDA [KNL1_Y489_YF] | 0.836 | 0.942 | 0.502 | 1.02 | 0.706 | 0.538 | 0.569 | 0.572 | 0.766 | 0.536 | 0.517 | 0.636 | 0.569 | 2.03 | 0.633 | 0.789
AIIGIYILRDD [CDH23_Y2949] | 0.965 | 1.24 | 0.831 | 1.5 | 0.788 | 2.76 | 1.18 | 0.951 | 1.35 | 0.546 | 0.676 | 0.753 | 0.484 | 1.04 | 1.11 | 1.47
ETKGDYEKILV [ANXA1_Y335] | 0.82 | 1.16 | 0.713 | 1.17 | 0.625 | 0.523 | 0.506 | 0.651 | 1.01 | 0.454 | 1.04 | 0.682 | 0.548 | 1.08 | 0.54 | 0.815
ADELEYSRTGL [MMUT_Y287_G284E] | 0.644 | 1.11 | 0.596 | 0.972 | 0.568 | 0.464 | 0.482 | 0.517 | 0.741 | 0.407 | 0.437 | 0.645 | 0.402 | 0.457 | 0.623 | 0.747
QEIATYRRLRE [KRT17_Y384_L388R] | 0.597 | 0.734 | 0.64 | 0.936 | 0.557 | 0.537 | 0.61 | 0.779 | 0.558 | 0.798 | 0.508 | 0.933 | 0.77 | 0.441 | 0.478 | 0.75
EFGRRYGFSCQ [CCDC93_Y209_R213C_YF] | 0.733 | 0.914 | 0.539 | 0.989 | 0.504 | 0.468 | 0.547 | 0.418 | 0.911 | 0.491 | 0.534 | 0.62 | 0.629 | 0.495 | 0.635 | 0.856
SAAAIYTVRHP [PMP22_Y117] | 0.67 | 0.615 | 0.54 | 0.601 | 0.516 | 6.41 | 5.3 | 7.82 | 0.506 | 1.92 | 0.474 | 0.43 | 0.487 | 0.443 | 0.891 | 0.9
LSKDLYLISQM [LARP4_Y141] | 1.06 | 1.78 | 1.59 | 1.63 | 1.29 | 0.639 | 0.828 | 0.836 | 1.28 | 0.703 | 0.918 | 1.41 | 0.933 | 0.413 | 1.08 | 0.912
